Assay in all cases: SEC; Superdex 200 increase column, 40 mM potassium phosphate, 300 mM NaCl, pH 6.5, 1 mL/min, detection at 220 nm; drug products reconstituted in water for injection
(SEC sorts molecules by how far they enter the pores of the column.)

In assay [1] the target is L-Aspase (E. coli L-asparaginase) (E. coli) (UniProt P00805).
For assay [2], the target named is T1, Spectrila (recombinant E. coli L-asparaginase type II) (E. coli), P00805.
T1 chain: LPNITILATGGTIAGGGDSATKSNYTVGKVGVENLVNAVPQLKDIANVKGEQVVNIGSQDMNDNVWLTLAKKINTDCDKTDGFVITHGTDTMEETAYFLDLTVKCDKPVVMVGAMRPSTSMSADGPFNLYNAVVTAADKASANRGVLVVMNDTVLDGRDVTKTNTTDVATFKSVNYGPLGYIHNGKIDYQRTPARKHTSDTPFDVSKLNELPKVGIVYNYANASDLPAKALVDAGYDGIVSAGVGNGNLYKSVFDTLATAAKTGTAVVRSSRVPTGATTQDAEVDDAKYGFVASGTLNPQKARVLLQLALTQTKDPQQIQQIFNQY
To be noted: remark: other sources report otherwise.

Assay [3] deals with T2, Bionase (E. coli L-asparaginase) (E. coli), P00805.
T2 chain: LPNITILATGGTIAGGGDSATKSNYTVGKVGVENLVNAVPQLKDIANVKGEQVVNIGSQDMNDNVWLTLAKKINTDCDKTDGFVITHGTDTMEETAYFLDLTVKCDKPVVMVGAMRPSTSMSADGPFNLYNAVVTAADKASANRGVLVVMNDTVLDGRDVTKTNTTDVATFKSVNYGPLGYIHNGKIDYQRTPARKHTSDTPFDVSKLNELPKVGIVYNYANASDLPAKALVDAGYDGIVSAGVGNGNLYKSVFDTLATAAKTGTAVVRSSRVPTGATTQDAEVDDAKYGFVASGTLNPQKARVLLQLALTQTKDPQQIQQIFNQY
To be noted: remark: other sources report otherwise.

The target of assay [4] is T3, Celginase (E. coli L-asparaginase) (E. coli), P00805.
T3 chain: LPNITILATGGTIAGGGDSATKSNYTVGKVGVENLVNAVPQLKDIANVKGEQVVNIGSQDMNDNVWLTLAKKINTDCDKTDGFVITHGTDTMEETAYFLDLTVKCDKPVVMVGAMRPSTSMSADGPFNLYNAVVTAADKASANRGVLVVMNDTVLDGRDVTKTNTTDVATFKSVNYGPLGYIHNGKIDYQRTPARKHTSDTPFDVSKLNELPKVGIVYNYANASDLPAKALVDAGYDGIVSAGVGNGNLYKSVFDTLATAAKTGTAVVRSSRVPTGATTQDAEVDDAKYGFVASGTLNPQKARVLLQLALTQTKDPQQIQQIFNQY
To be noted: remark: other sources report otherwise.

The results in this text go back to publication PMC12169553.

As a reminder, the stoichiometry N is the number of molecules, sites or subunits per partner or assembly. On to “L-Aspase (E. coli L-asparaginase) (from UniProt P00805 23-348) (enzyme)”, for which the stoichiometry N in assay [1] was 4.

B1: Spectrila (recombinant E. coli L-asparaginase type II), P00805 23-348 (enzyme)
chain: LPNITILATGGTIAGGGDSATKSNYTVGKVGVENLVNAVPQLKDIANVKGEQVVNIGSQDMNDNVWLTLAKKINTDCDKTDGFVITHGTDTMEETAYFLDLTVKCDKPVVMVGAMRPSTSMSADGPFNLYNAVVTAADKASANRGVLVVMNDTVLDGRDVTKTNTTDVATFKSVNYGPLGYIHNGKIDYQRTPARKHTSDTPFDVSKLNELPKVGIVYNYANASDLPAKALVDAGYDGIVSAGVGNGNLYKSVFDTLATAAKTGTAVVRSSRVPTGATTQDAEVDDAKYGFVASGTLNPQKARVLLQLALTQTKDPQQIQQIFNQY
As to B1, the stoichiometry N in assay [2] stood at 4.

B2: Bionase (E. coli L-asparaginase), P00805 23-348 (enzyme)
chain: LPNITILATGGTIAGGGDSATKSNYTVGKVGVENLVNAVPQLKDIANVKGEQVVNIGSQDMNDNVWLTLAKKINTDCDKTDGFVITHGTDTMEETAYFLDLTVKCDKPVVMVGAMRPSTSMSADGPFNLYNAVVTAADKASANRGVLVVMNDTVLDGRDVTKTNTTDVATFKSVNYGPLGYIHNGKIDYQRTPARKHTSDTPFDVSKLNELPKVGIVYNYANASDLPAKALVDAGYDGIVSAGVGNGNLYKSVFDTLATAAKTGTAVVRSSRVPTGATTQDAEVDDAKYGFVASGTLNPQKARVLLQLALTQTKDPQQIQQIFNQY
For B2, the stoichiometry N in assay [3] turned out to be 4.

B3: Celginase (E. coli L-asparaginase), P00805 23-348 (enzyme)
chain: LPNITILATGGTIAGGGDSATKSNYTVGKVGVENLVNAVPQLKDIANVKGEQVVNIGSQDMNDNVWLTLAKKINTDCDKTDGFVITHGTDTMEETAYFLDLTVKCDKPVVMVGAMRPSTSMSADGPFNLYNAVVTAADKASANRGVLVVMNDTVLDGRDVTKTNTTDVATFKSVNYGPLGYIHNGKIDYQRTPARKHTSDTPFDVSKLNELPKVGIVYNYANASDLPAKALVDAGYDGIVSAGVGNGNLYKSVFDTLATAAKTGTAVVRSSRVPTGATTQDAEVDDAKYGFVASGTLNPQKARVLLQLALTQTKDPQQIQQIFNQY
B3 returned a stoichiometry N in assay [4] of 4.
